Data published in IntAct's records for PubMed 18786395.

B1: FH1/FH2 domain-containing protein 1 (Homo sapiens), Q9Y613 (parent)
chain: MAGGEDRGDGEPVSVVTVRVQYLEDTDPFACANFPEPRRAPTCSLDGALPLGAQIPAVHRLLGAPLKLEDCALQVSPSGYYLDTELSLEEQREMLEGFYEEISKGRKPTLILRTQLSVRVNAILEKLYSSSGPELRRSLFSLKQIFQEDKDLVPEFVHSEGLSCLIRVGAAADHNYQSYILRALGQLMLFVDGMLGVVAHSDTIQWLYTLCASLSRLVVKTALKLLLVFVEYSENNAPLFIRAVNSVASTTGAPPWANLVSILEEKNGADPELLVYTVTLINKTLAALPDQDSFYDVTDALEQQGMEALVQRHLGTAGTDVDLRTQLVLYENALKLEDGDIEEAPGAGGRRERRKPSSEEGKRSRRSLEGGGCPARAPEPGPTGPASPVGPTSSTGPALLTGPASSPVGPPSGLQASVNLFPTISVAPSADTSSERSIYKARFLENVAAAETEKQVALAQGRAETLAGAMPNEAGGHPDARQLWDSPETAPAARTPQSPAPCVLLRAQRSLAPEPKEPLIPASPKAEPIWELPTRAPRLSIGDLDFSDLGEDEDQDMLNVESVEAGKDIPAPSPPLPLLSGVPPPPPLPPPPPIKGPFPPPPPLPLAAPLPHSVPDSSALPTKRKTVKLFWRELKLAGGHGVSASRFGPCATLWASLDPVSVDTARLEHLFESRAKEVLPSKKAGEGRRTMTTVLDPKRSNAINIGLTTLPPVHVIKAALLNFDEFAVSKDGIEKLLTMMPTEEERQKIEEAQLANPDIPLGPAENFLMTLASIGGLAARLQLWAFKLDYDSMEREIAEPLFDLKVGMEQLVQNATFRCILATLLAVGNFLNGSQSSGFELSYLEKVSEVKDTVRRQSLLHHLCSLVLQTRPESSDLYSEIPALTRCAKVDFEQLTENLGQLERRSRAAEESLRSLAKHELAPALRARLTHFLDQCARRVAMLRIVHRRVCNRFHAFLLYLGYTPQAAREVRIMQFCHTLREFALEYRTCRERVLQQQQKQATYRERNKTRGRMITETEKFSGVAGEAPSNPSVPVAVSSGPGRGDADSHASMKSLLTSRPEDTTHNRRSRGMVQSSSPIMPTVGPSTASPEEPPGSSLPSDTSDEIMDLLVQSVTKSSPRALAARERKRSRGNRKSLRRTLKSGLGDDLVQALGLSKGPGLEV

Variants of: B1
Conditions: with rash_human HRAS

effect of a mutation on the interaction | Variant
increasing interaction | P41K
